Conditions: Bos taurus, Thermal, DSC, NaCl 200 mM, reversible: yes, whole UniProt chain shown
[1] = pH 4, Acetic acid-Sodium acetate 10 mM
[2] = pH 5, Acetic acid-Sodium acetate 10 mM

B1: Ribonuclease pancreatic wild type, P61823 (protein)
chain: MALKSLVLLSLLVLVLLLVRVQPSLGKETAAAKFERQHMDSSTSAASSSNYCNQMMKSRNLTKDRCKPVNTFVHESLADVQAVCSQKNVACKNGQTNCYQSYSTMSITDCRETGSSKYPNCAYKTTQANKHIIVACEGNPYVPVHFDASV
In the case of B1, the Tm [1] is reported as 44.6 °C, the “heat capacity change of unfolding” value [1] is reported as 1.24 kcal/mol/K and the “unfolding enthalpy (calorimetric)” value [1] is reported as 94.5 kcal/mol. For the same protein, the “unfolding enthalpy (van 't Hoff)” value [1] was 98.1 kcal/mol, the Tm [2] was 45.5 °C and the “heat capacity change of unfolding” value [2] was 1.2 kcal/mol/K. For the same protein, the “unfolding enthalpy (calorimetric)” value [2] was 95.7 kcal/mol, the “unfolding enthalpy (van 't Hoff)” value [2] was 96.9 kcal/mol and the Tm (pH 6, MES 10 mM) was 46.8 °C. For the same protein, the “heat capacity change of unfolding” value (pH 6, MES 10 mM) was 1.17 kcal/mol/K, the “unfolding enthalpy (calorimetric)” value (pH 6, MES 10 mM) was 98.1 kcal/mol and the “unfolding enthalpy (van 't Hoff)” value (pH 6, MES 10 mM) was 100 kcal/mol. The Tm (pH 6.5, MES 10 mM) was 47.2 °C, the “heat capacity change of unfolding” value (pH 6.5, MES 10 mM) was 1.22 kcal/mol/K and the “unfolding enthalpy (calorimetric)” value (pH 6.5, MES 10 mM) was 99.3 kcal/mol. The “unfolding enthalpy (van 't Hoff)” value (pH 6.5, MES 10 mM) was 100 kcal/mol, the Tm (pH 7, MOPS 10 mM) was 50.1 °C and the “heat capacity change of unfolding” value (pH 7, MOPS 10 mM) was 1.22 kcal/mol/K. For the same protein, the “unfolding enthalpy (calorimetric)” value (pH 7, MOPS 10 mM) was 103 kcal/mol, the “unfolding enthalpy (van 't Hoff)” value (pH 7, MOPS 10 mM) was 102 kcal/mol and the Tm (pH 7.5, MOPS 10 mM) was 50.6 °C. The “heat capacity change of unfolding” value (pH 7.5, MOPS 10 mM) was 1.2 kcal/mol/K, the “unfolding enthalpy (calorimetric)” value (pH 7.5, MOPS 10 mM) was 104 kcal/mol and the “unfolding enthalpy (van 't Hoff)” value (pH 7.5, MOPS 10 mM) was 105 kcal/mol.
